Source: patent publication US20230057987A1 (published 2023)

Experiments:
[1] = target: CT45-IP antigenic peptide (…) in complex with HLA-A*02 presented on cells (peptide-loaded T2 cells; NCIH1703 and A375 tumor cells) (human); assay: cell-based or functional assay
[2] = target: T1, CT45-IP alanine variant, position 3 peptide on HLA-A*02:01 (human); assay: killing
T1 peptide: KIAEMLEGV

[3] = target: T2, similar peptide SP-05-0003, source protein not stated peptide on HLA-A*02:01 (human); assay: killing
T2 peptide: KVTEMLVNV

[4] = target: T3, similar peptide SP-05-0001, source protein not stated peptide on HLA-A*02:01 (human); assay: killing
T3 peptide: HIMEHLEGV

[5] = target: T4, similar peptide SP-05-0005, source protein not stated peptide on HLA-A*02:01 (human); assay: killing
T4 peptide: KIEEFLEAV

[6] = target: T5, CT45-IP alanine variant, position 1 peptide on HLA-A*02:01 (human); assay: killing
T5 peptide: AIFEMLEGV

[7] = target: T6, CT45-IP alanine variant, position 6 peptide on HLA-A*02:01 (human); assay: killing
T6 peptide: KIFEMAEGV

[8] = target: T7, similar peptide SP-05-0004, source protein not stated peptide on HLA-A*02:01 (human); assay: killing
T7 peptide: KIWEWLVGV

[9] = target: T8, similar peptide SP-05-0008, source protein not stated peptide on HLA-A*02:01 (human); assay: killing
T8 peptide: KILDELEKV

[10] = target: T9, similar peptide SP-05-0010, source protein not stated peptide on HLA-A*02:01 (human); assay: killing
T9 peptide: RIFETVNSV

[11] = target: T10, similar peptide SP-05-0006, source protein not stated peptide on HLA-A*02:01 (human); assay: killing
T10 peptide: KIAELLENV

[12] = target: T11, similar peptide SP-05-0002, source protein not stated peptide on HLA-A*02:01 (human); assay: killing
T11 peptide: KIFSGLLKV

[13] = target: T12, similar peptide SP-05-0007, source protein not stated peptide on HLA-A*02:01 (human); assay: killing
T12 peptide: KIFPALCTV

[14] = target: T13, CT45-IP alanine variant, position 8 peptide on HLA-A*02:01 (human); assay: killing
T13 peptide: KIFEMLEAV

[15] = target: T14, similar peptide SP-05-0009, source protein not stated peptide on HLA-A*02:01 (human); assay: killing
T14 peptide: KIIDLLPKV

[16] = target: T15, CT45-IP alanine variant, position 4 peptide on HLA-A*02:01 (human); assay: killing
T15 peptide: KIFAMLEGV

[17] = target: CT45-IP-HLA-A*02 dextramer (human); assay: flow cytometry, dextramer staining of TCR-mRNA electroporated T cells, gated on CD3+
[18] = target: T16, CT45 (CT45A1, A2, A3, A5 to A10); CT45-IP peptide on HLA-A*02:01 (human); assay: luciferase release, 24 h, 1:1; CD8+ T cells with TCR mRNA, T2 cells with titrated peptide; full-length, on cells
T16 peptide: KIFEMLEGV

[19] = target: T16, CT45 (CT45A1, A2, A3, A5 to A10); …; assay: CT45-IP-HLA-A*02 dextramer on T cells with TCR mRNA; TCR found by tetramer sorting; full-length, on cells

B1: TCR-8 (TCR, V domains shown)
Valpha: QKVTQAQTEISVVEKEDVTLDCVYETRDTTYYLFWYKQPPSGELVFLIRRNSFDEQNEISGRYSWNFQKSTSSFNFTITASQVVDSAVYFCALSGRGSGTYKYIFGTGTRLKVLA
Vbeta: GVIQSPRHLIKEKRETATLKCYPIPRHDTVYWYQQGPGQDPQFLISFYEKMQSDKGSIPDRFSAQQFSDYHSELNMSSLELGDSALYFCASSAGTSYNEQFFGPGTRLTVL
EC50, half maximal killing capacity (functional avidity; CT45-IP peptide titration on T2 cells, luciferase release) [1]: 6.52 nM | binding result [2]: recognises | binding result [3]: no recognition | binding result [4]: no recognition | binding result [5]: no recognition | binding result [6]: recognises | binding result [7]: recognises | binding result [8]: no recognition | binding result [9]: no recognition | binding result [10]: no recognition | binding result [11]: no recognition | binding result [12]: no recognition | binding result [13]: no recognition | binding result [14]: recognises | binding result [15]: no recognition | binding result [16]: recognises | surface expression, % positive events by CT45-IP-HLA-A2*02 dextramer staining [17]: 60.7% | EC50 of peptide [18]: 6.52 nM | dextramer-positive events [19]: 60.7%
